# Results: paper PMC4278837, “A Cyclic Peptidic Serine Protease Inhibitor: Increasing Affinity by Increasing Peptide Flexibility” (PLoS ONE, 2014)
# Bridge positions count the residues as written; N and C are the ends. Square brackets hold non-standard residues; d marks the D form. Ends that are not written are not given here. Ala(1-amidino-4-piperidyl) = N=C(N)N1CCC(C[C@H](N)C(=O)O)CC1; Phe(4-guanidino) = N=C(N)Nc1ccc(C[C@H](N)C(=O)O)cc1
# B1: mupain-1 (peptide)
# peptide: CPAYSRYLDC
# modifications: disulfide 1-10 (inferred)
# notes: Synthesised on a resin with Rink amide linker; source: synthetic peptide (solid-phase synthesis, HPLC purified)
# B2: Mupain-1 D9A (peptide)
# peptide: CPAYSRYLAC
# modifications: disulfide 1-10 (inferred)
# notes: mupain-1 with D9A; Rink amide linker resin; C-terminal amide surmised; source: synthetic peptide (solid-phase synthesis, HPLC purified)
# Target: huPA-H99Y-V41A (human)
# Test: enzyme inhibition (steady state, chromogenic substrate S-2444); about 2 nM enzyme (purified or conditioned medium of transfected cells) pre-incubated 15 min with varied peptide in HBS (10 mM HEPES pH 7.4, 140 mM NaCl) with 0.1% BSA at 37°C; substrate about KM; fit for competitive inhibition; highest peptide concentration 400 µM
# Conditions: not given
row,Binder,Ki
1,CPAYS[Ala(1-amidino-4-piperidyl)]YLDC (disulfide 1-10; not fully specified) [mupain-1-16],1950 nM
2,CPAYS[Ala(1-amidino-4-piperidyl)]YLAC (disulfide 1-10; not fully specified) [Mupain-1-16 D9A],480 nM
3,CPAYS[Phe(4-guanidino)]YLDC (disulfide 1-10) [mupain-1-12],1600 nM

# Target: huPA-H99Y-Q192A (human)
# Test: as above
# Conditions: not given
row,Binder,Ki
1,CPAYS[Ala(1-amidino-4-piperidyl)]YLDC (disulfide 1-10; not fully specified) [mupain-1-16],2710 nM
2,CPAYS[Ala(1-amidino-4-piperidyl)]YLAC (disulfide 1-10; not fully specified) [Mupain-1-16 D9A],438 nM
3,CPAYS[Phe(4-guanidino)]YLDC (disulfide 1-10) [mupain-1-12],2350 nM

# Target: huPA-H99Y-R35A (human)
# Test: as above
# Conditions: not given
row,Binder,Ki
1,CPAYS[Ala(1-amidino-4-piperidyl)]YLDC (disulfide 1-10; not fully specified) [mupain-1-16],2500 nM
2,CPAYS[Ala(1-amidino-4-piperidyl)]YLAC (disulfide 1-10; not fully specified) [Mupain-1-16 D9A],174 nM
3,CPAYS[Phe(4-guanidino)]YLDC (disulfide 1-10) [mupain-1-12],3260 nM

# Target: T1, huPA-H99Y (full length human urokinase-type plasminogen activator with H99Y) (human)
# Test: as above
# Conditions: not given
row,Binder,Ki
1,CPAYS[Ala(1-amidino-4-piperidyl)]YLAC (disulfide 1-10; not fully specified) [Mupain-1-16 D9A],309 nM

# Target: huPA-H99Y-K143A (human)
# Test: as above
# Conditions: not given
row,Binder,Ki
1,CPAYS[Ala(1-amidino-4-piperidyl)]YLDC (disulfide 1-10; not fully specified) [mupain-1-16],1130 nM
2,CPAYS[Ala(1-amidino-4-piperidyl)]YLAC (disulfide 1-10; not fully specified) [Mupain-1-16 D9A],188 nM
3,CPAYS[Phe(4-guanidino)]YLDC (disulfide 1-10) [mupain-1-12],2140 nM

# Target: T2, muPA-V213T (murine)
# T2 construct: site directed mutant of full length muPA; numbers count on: chymotrypsin numbering; Two-chain form after plasmin; source: HEK293 6E, transfected; treated with plasmin
# Test: as above
# Conditions: not given
row,Binder,Ki
1,CPAYS[Ala(1-amidino-4-piperidyl)]YLDC (disulfide 1-10; not fully specified) [mupain-1-16],13 nM
2,CPAYS[Ala(1-amidino-4-piperidyl)]YLAC (disulfide 1-10; not fully specified) [Mupain-1-16 D9A],14 nM
3,CPAYS[Phe(4-guanidino)]YLDC (disulfide 1-10) [mupain-1-12],86 nM

# Target: T3, muPA-S190A (murine)
# T3 construct: site directed mutant of full length muPA; numbers count on: chymotrypsin numbering; Two-chain form after plasmin; source: HEK293 6E, transfected; treated with plasmin
# Test: as above
# Conditions: not given
row,Binder,Ki
1,CPAYS[Ala(1-amidino-4-piperidyl)]YLDC (disulfide 1-10; not fully specified) [mupain-1-16],352 nM
2,CPAYS[Ala(1-amidino-4-piperidyl)]YLAC (disulfide 1-10; not fully specified) [Mupain-1-16 D9A],529 nM
3,CPAYS[Phe(4-guanidino)]YLDC (disulfide 1-10) [mupain-1-12],2300 nM

# Target: recombinant catalytic domain of huPA-H99Y (residues 159-411) (human, UniProt P00749 179-431)
# Test: ITC; MicroCal ITC200; peptide injected into 5-50 µM huPA-H99Y catalytic domain; 20 mM sodium phosphate pH 7.4, 140 mM NaCl, 25°C; one-binding-site model
# Conditions: both partners purified
Binder,Kd,dH,stoichiometry N
CPAYS[Ala(1-amidino-4-piperidyl)]YLDC (disulfide 1-10; not fully specified) [mupain-1-16],380 nM,-7.93 kcal/mol,0.87
CPAYS[Ala(1-amidino-4-piperidyl)]YLAC (disulfide 1-10; not fully specified) [Mupain-1-16 D9A],134 nM,-11.1 kcal/mol,0.88
CPAYS[Phe(4-guanidino)]YLDC (disulfide 1-10) [mupain-1-12],400 nM,-10.5 kcal/mol,0.85

# Target: T4, murine urokinase-type plasminogen activator (muPA) wild type (murine, UniProt P06869 21-433)
# T4 construct: cDNA encoding full length muPA; Two-chain form after plasmin; also called muPA wt; muPA-wt; source: HEK293 6E, transfected; treated with plasmin
# Test: enzyme inhibition (steady state, chromogenic substrate S-2444); about 2 nM enzyme (purified or conditioned medium of transfected cells) pre-incubated 15 min with varied peptide in HBS (10 mM HEPES pH 7.4, 140 mM NaCl) with 0.1% BSA at 37°C; substrate about KM; fit for competitive inhibition; highest peptide concentration 400 µM
# Conditions: not given
# T4 sequence (P06869 21-433): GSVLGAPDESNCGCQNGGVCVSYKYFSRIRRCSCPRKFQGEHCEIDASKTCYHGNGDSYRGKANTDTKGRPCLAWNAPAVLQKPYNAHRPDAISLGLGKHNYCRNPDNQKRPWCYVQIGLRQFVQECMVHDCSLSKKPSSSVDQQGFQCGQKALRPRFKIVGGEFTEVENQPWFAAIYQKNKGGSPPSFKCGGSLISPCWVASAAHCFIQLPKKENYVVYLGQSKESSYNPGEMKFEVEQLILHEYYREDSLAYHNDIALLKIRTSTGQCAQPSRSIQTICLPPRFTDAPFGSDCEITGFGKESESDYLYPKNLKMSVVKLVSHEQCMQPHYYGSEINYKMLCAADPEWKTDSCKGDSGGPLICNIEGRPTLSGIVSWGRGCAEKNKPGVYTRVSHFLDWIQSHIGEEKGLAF
row,Binder,Ki
1,CPAYS[Ala(1-amidino-4-piperidyl)]YLAC (disulfide 1-10; not fully specified) [Mupain-1-16 D9A],76 nM

# Target: T5, muPA-Y99A (murine)
# T5 construct: site directed mutant of full length muPA; numbers count on: chymotrypsin numbering; Two-chain form after plasmin; source: HEK293 6E, transfected; treated with plasmin
# Test: as above
# Conditions: not given
row,Binder,Ki
1,CPAYS[Ala(1-amidino-4-piperidyl)]YLDC (disulfide 1-10; not fully specified) [mupain-1-16],1240 nM
2,CPAYS[Ala(1-amidino-4-piperidyl)]YLAC (disulfide 1-10; not fully specified) [Mupain-1-16 D9A],1360 nM
3,CPAYS[Phe(4-guanidino)]YLDC (disulfide 1-10) [mupain-1-12],5200 nM

# Target: T6, muPA-K143A (murine)
# T6 construct: site directed mutant of full length muPA; numbers count on: chymotrypsin numbering; Two-chain form after plasmin; source: HEK293 6E, transfected; treated with plasmin
# Test: as above
# Conditions: not given
row,Binder,Ki
1,CPAYS[Ala(1-amidino-4-piperidyl)]YLDC (disulfide 1-10; not fully specified) [mupain-1-16],130 nM
2,CPAYS[Ala(1-amidino-4-piperidyl)]YLAC (disulfide 1-10; not fully specified) [Mupain-1-16 D9A],100 nM
3,CPAYS[Phe(4-guanidino)]YLDC (disulfide 1-10) [mupain-1-12],1000 nM

# Target: T7, muPA-K41A (murine)
# T7 construct: site directed mutant of full length muPA; numbers count on: chymotrypsin numbering; Two-chain form after plasmin; source: HEK293 6E, transfected; treated with plasmin
# Test: as above
# Conditions: not given
row,Binder,Ki
1,CPAYS[Ala(1-amidino-4-piperidyl)]YLDC (disulfide 1-10; not fully specified) [mupain-1-16],300 nM
2,CPAYS[Ala(1-amidino-4-piperidyl)]YLAC (disulfide 1-10; not fully specified) [Mupain-1-16 D9A],14 nM
3,CPAYS[Phe(4-guanidino)]YLDC (disulfide 1-10) [mupain-1-12],1720 nM

# Target: T4, murine urokinase-type plasminogen …
# Test: SPR; Biacore T200; uPA variant amine-coupled to a CM5 chip (about 500 RU); peptides injected in HBS with 0.1% BSA, 30 µL/min, 25°C, pH 7.4; 1:1 kinetic fit; KD = koff/kon
# Conditions: both partners purified
Binder,Kd,koff,kon
CPAYS[Ala(1-amidino-4-piperidyl)]YLDC (disulfide 1-10; not fully specified) [mupain-1-16],89.4 nM,0.00671 s⁻¹,89800 M⁻¹ s⁻¹
CPAYS[Ala(1-amidino-4-piperidyl)]YLAC (disulfide 1-10; not fully specified) [Mupain-1-16 D9A],21.3 nM,0.0122 s⁻¹,579000 M⁻¹ s⁻¹
CPAYS[Phe(4-guanidino)]YLDC (disulfide 1-10) [mupain-1-12],138 nM,0.0192 s⁻¹,156000 M⁻¹ s⁻¹
B1,398 nM,0.0364 s⁻¹,91400 M⁻¹ s⁻¹
B2,417 nM,0.0401 s⁻¹,98500 M⁻¹ s⁻¹

# Target: T1, huPA-H99Y (full length human …)
# Test: as above
# Conditions: both partners purified
Binder,Kd,koff,kon
CPAYS[Ala(1-amidino-4-piperidyl)]YLDC (disulfide 1-10; not fully specified) [mupain-1-16],844 nM,0.0893 s⁻¹,107000 M⁻¹ s⁻¹
CPAYS[Ala(1-amidino-4-piperidyl)]YLAC (disulfide 1-10; not fully specified) [Mupain-1-16 D9A],71.8 nM,0.0333 s⁻¹,465000 M⁻¹ s⁻¹
CPAYS[Phe(4-guanidino)]YLDC (disulfide 1-10) [mupain-1-12],1210 nM,0.246 s⁻¹,206000 M⁻¹ s⁻¹
